# According to US20080124758A1, “Transmembrane domain removed recombinant human tyrosinase and method of producing the same” (Chung-Ang University Industry-Academy Cooperation Foundation, priority 2006, published 2008):
# Like-named read-outs stand apart in the source and are kept apart here.
# B1: Recombinant human tyrosinase of comparative example 2 (pET-hTyr): Recombinant human tyrosinase produced in E. coli with pET-hTyr vector by the method of Korean Patent Application No. 2002-0073728 (protein, UniProt P14679 19-529, looked up)
# Tyrosinase: HFPRACVSSKNLMEKECCPPWSGDRSPCGQLSGRGSCQNILLSNAPLGPQFPFTGVDDRESWPSVFYNRTCQCSGNFMGFNCGNCKFGFWGPNCTERRLLVRRNIFDLSAPEKDKFFAYLTLAKHTISSDYVIPIGTYGQMKNGSTPMFNDINIYDLFVWMHYYVSMDALLGGSEIWRDIDFAHEAPAFLPWHRLFLLRWEQEIQKLTGDENFTIPYWDWRDAEKCDICTDEYMGGQHPTNPNLLSPASFFSSWQIVCSRLEEYNSHQSLCNGTPEGPLRRNPGNHDKSRTPRLPSSADVEFCLSLTQYESGSMDKAANFSFRNTLEGFASPLTGIADASQSSMHNALHIYMNGTMSQVQGSANDPIFLLHHAFVDSIFEQWLRRHRPLQEVYPEANAPIGHNRESYMVPFIPLYRNGDFFISSKDLGYDYSYLQDSDPDSFQDYIKSYLEQASRIWSWLLGAAMVGAVLTALLAGLVSLLCRHKRKQLPEEKQPLLMEKEDYHSLYQSHL
# B2: Recombinant human tyrosinase of comparative example 1 (pHis-hTyr): Recombinant human tyrosinase produced in E. coli with pHis-hTyr vector by the method of Korean Patent Application No. 2001-0057379 (protein, UniProt P14679 19-529, looked up)
# Tyrosinase: B1 Tyrosinase
# modifications: His tag
# B3: purified tyrosinase from human HeLa cell: Tyrosinase purified from human HeLa cell (Spritz et al., 1997) (protein, UniProt P14679 19-529, looked up)
# Tyrosinase: B1 Tyrosinase
# B4: Recombinant human tyrosinase of example 2 (pET-hTyrosinase(TM-)): Human tyrosinase with C-terminal transmembrane domain (55 amino acids) removed, SEQ ID NO: 2, expressed in E. coli with six … (protein)
# chain: MHFPRACVSSKNLMEKECCPPWSGDRSPCGQLSGRGSCQNILLSNAPLGPQFPFTGVDDRESWPSVFYNRTCQCSGNFMGFNCGNCKFGFWGPNCTERRLLVRRNIFDLSAPEKDKFFAYLTLAKHTISSDYVIPIGTYGQMKNGSTPMFNDINIYDLFVWMHYYVSMDALLGGSEIWRDIDFAHEAPAFLPWHRLFLLRWEQEIQKLTGDENFTIPYWDWRDAEKCDICTDEYMGGQHPTNPNLLSPASFFSSWQIVCSRLEEYNSHQSLCNGTPEGPLRRNPGNHDKSRTPRLPSSADVEFCLSLTQYESGSMDKAANFSFRNTLEGFASPLTGIADASQSSMHNALHIYMNGTMSQVQGSANDPIFLLHHAFVDSIFEQWLRRHRPLQEVYPEANAPIGHNRESYMVPFIPLYRNGDFFISSKDLGYDYSYLQDSDPDSFQDYIKSYLEQASRI
# modifications: C-terminal His6 tag; Human tyrosinase
# What was measured:
# [1] = Tyrosine hydroxylase activity of human tyrosinase (method of Husain et al., fluorescence of L-dopa formed); type: biochemical; conditions: for Increase of specific tyrosine hydroxylase activity of the His-bind purified enzyme compared to the crude extract: His-bind resin purified vs crude extract
# Description: (§1) The measuring of the tyrosine hydroxylase activity was conducted according to a method of Husain et al. (Husain et al., J. Invest. Dermatol. 78: 243-252, 1982). Hydroxylation was conducted within an L-Dopa concentration range of 0-30 mM. A standard curve with respect to L-dopa was obtained. Using the standard curve, the amount of L-dopa produced after the reaction was determined. The reaction solution was prepared by adding 100 μM of L-tyrosine, L-dopa of each concentration, 4 mM of ascorbic acid and 100 μl of human tyrosinase into 50 mM Potassium phosphate buffer solution (pH 6.8) to obtain 2.5 ml of the solution. After that, the reaction was conducted at 37° C. for 3 hours. At this time, a reaction was conducted without adding the purified human tyrosinase as a control. The product was subjected to excitation at 360 nm and then was subjected to an emission at 490 nm by a method of Ram et al. (Ram et al., J. Biol. Chem. 267: 23707-23712, 1992). The intensity of the emission was measured. The measured value was converted into the concentration of L-dopa and the enzyme activity was measured. The specific activity with respect to the tyrosine hydroxylase activity of the purified human tyrosinase of the present invention was determined as the created mol number (mmol) of the L-dopa with respect to the amount of the enzyme (μg) per hour.
# [2] = read-out: Km value to L-tyrosine, cited from earlier work
# [3] = Dopa oxidase activity of human tyrosinase (method of Fling et al., dopachrome at 475 nm); type: biochemical
# Description: (§2) The measurement of the dopa oxidase activity was conducted by the method of Fling et al. (Fling et al. J. Biol. Chem. 238: 2045-2053, 1963). The transformation of L-dopa which was the substrate of dopa oxidase into a brown product of dopachrome by tyrosinase was measured at 475 nm. […] 3 mM of L-dopa was added into 50 mM of tris-HCl buffer solution (pH 7.5) and incubated at 370 for 10 minutes. Then, 30 μl of human tyrosinase was added and the absorbance change was measured at 475 nm for 3 minutes. At this time, the unit of the activity of the enzyme was defined as follows. When 1 μmole of dopachrome was produced for 1 minute, this activity was defined as 1 unit (μmole/min). Specific activity was defined as 1 unit per 1 mg enzyme.
# [4] = literature value, Spritz et al. 1997; cited from earlier work
# [5] = Influence of L-dopa concentration, Km by Lineweaver-Burk plot; type: biochemical; conditions: L-dopa 0.05-5 mM
# Description: as §2, with “Specific activity was defined as 1 unit per 1 mg enzyme.” left out
# The concentration of the substrate, L-tyrosine was given in a range of 0.01-1 mM, and the influence of the substrate concentration onto the recombinant human tyrosinase prepared by example 2 was evaluated. […] The Km value of the recombinant human tyrosinase according to the present invention was calculated by the Lineweaver-Burk Plot (Lineweaver et al., J. Am, Chem. Soc., 56; 658-666, 1934).
# The concentration of L-dopa, which is another substrate of the human tyrosinase was given in a range of 0.05-5 mM and the influence of the substrate concentration with respect to the recombinant human tyrosinase prepared in example 2 was examined. The dopa oxidase activity is measured by the same method of experiment 2. […]
# [6] = Influence of L-tyrosine concentration, Km by Lineweaver-Burk plot; type: biochemical
# Description: as §1
# The concentration of the substrate, L-tyrosine was given in a range of 0.01-1 mM, and the influence of the substrate concentration onto the recombinant human tyrosinase prepared by example 2 was evaluated. It is conducted by the same method of measuring the tyrosine hydroxylase activity explained in the experiment 1. The Km value of the recombinant human tyrosinase according to the present invention was calculated by the Lineweaver-Burk Plot (Lineweaver et al., J. Am, Chem. Soc., 56; 658-666, 1934).
# [7] = purification step: DEAE-Sephacel chromatography
# [8] = purification step: crude extract
# [9] = purification step: His.bind resin chromatography
Molecule,Increase of specific tyrosine hydroxylase activity of the His-bind purified enzyme compared to the crude extract [1],"Specific activity (tyrosine hydroxylase) [1, 8]","Purification degree (dopa oxidase specific activity relative to crude extract) [3, 7]","Specific activity (dopa oxidase) [3, 7]","Total activity (dopa oxidase) [3, 7]","Purification degree (dopa oxidase specific activity relative to crude extract) [3, 9]","Specific activity (dopa oxidase) [3, 9]","Total activity (dopa oxidase) [3, 9]","Purification degree (dopa oxidase specific activity relative to crude extract) [3, 8]","Specific activity (dopa oxidase) [3, 8]","Total activity (dopa oxidase) [3, 8]",also measured
B1,about 49 times,1.8 ± 0.05 µmol/mg/h,5 fold,69.7 units/mg,4460 units,49 fold,699 units/mg,1922 units,1.0 fold,14.3 units/mg,5700 units,"Specific activity (tyrosine hydroxylase) [1, 7]: 11.0 ± 0.12 µmol/mg/h; Specific activity (tyrosine hydroxylase) ([1]; purification step: His.bind resin chromatography (finally purified)): 88.0 ± 1.50 µmol/mg/h; Km ([2]; value from previous filing): 2.34 µM"
B2,–,–,3.5 fold,1.4 units/mg,64 units,65.0 fold,26.0 units/mg,26 units,1.0 fold,0.4 units/mg,136 units,Km ([2]; value from previous filing or literature): 170 µM
B3,–,–,–,–,–,–,–,–,–,–,–,Specific activity with respect to tyrosine hydroxylase activity [4]: 22.3±0.01 μmol/1 g/h
B4,about 52 times,2.1 ± 0.05 µmol/mg/h,–,–,–,46 fold,807 units/mg,2977 units,1.0 fold,17.7 units/mg,6200 units,"Specific activity (tyrosine hydroxylase) ([1]; purification step: His.bind resin chromatography (finally purified), listed as Recombinant human tyrosinase of example 2 (pET-hTyrosinase(TM-))): 108.3 ± 2.10 µmol/mg/h; Specific activity (tyrosine hydroxylase) ([1]; purification step: His.bind resin chromatography (finally purified), listed as recombinant human tyrosinase): 108.3 ± 2.10 µmol/mg/h; Specific dopa oxidase activity, times higher than recombinant human tyrosinase of comparative example 1 ([3]; vs Korean Patent Application No. 2001-0057379 (comparative example 1)): about 31 times; Specific dopa oxidase activity, times higher than recombinant human tyrosinase of comparative example 2 ([3]; vs Korean Patent Application No. 2002-0073728 (comparative example 2)): about 1.2 times; Km [5]: 340 µM; Affinity onto the substrate L-tyrosine, times higher [6]: ≥ 100 times; Km ([6]; L-tyrosine 0.01-1 mM, Lineweaver-Burk plot): 1.32 µM; Km to L-tyrosine, times lower than Km of earlier tyrosinases ([6]; at the most, vs 0.17 mM, 2.34 μM and 0.2 mM): about 130 times"
